# Experimental data reported in the supplement of paper PMC11246515.
# ± gives the standard deviation of the averaged measurements.
# Assay: total protein half-life in vivo (active degradation + dilution); higher = more stable protein
# [1] = E. coli NCM3722 delta-clpP delta-lon delta-hslV, growth: N-lim chemostat, doubling time 6 h
# [2] = E. coli NCM3722 delta-clpP, growth: N-lim chemostat, doubling time 6 h
# [3] = E. coli NCM3722 delta-hslV, growth: N-lim chemostat, doubling time 6 h
# [4] = E. coli NCM3722 delta-lon, growth: N-lim chemostat, doubling time 6 h
# [5] = E. coli NCM3722 delta-smpB, growth: N-lim chemostat, doubling time 6 h
# [6] = wild type E. coli NCM3722, growth: C-lim chemostat, doubling time 3 h
# [7] = wild type E. coli NCM3722, growth: C-lim chemostat, doubling time 6 h
# [8] = wild type E. coli NCM3722, growth: C-lim chemostat, doubling time 12 h
# [9] = wild type E. coli NCM3722, growth: N-lim chemostat, doubling time 6 h
# [10] = wild type E. coli NCM3722, growth: N-lim chemostat, doubling time 12 h
# [11] = wild type E. coli NCM3722, growth: P-lim chemostat, doubling time 6 h
# [12] = wild type E. coli NCM3722, growth: P-lim chemostat, doubling time 12 h
sequence,measurement,setting,value
MGKALVIVESPAKAKTINKYLGSDYVVKSSVGHIRDLPTSGSAAKKSADSTSTKTAKKPKKDERGALVNRMGVDPWHNWEAHYEVLPGKEKVVSELKQLAEKADHIYLATDLDREGEAIAWHLREVIGGDDARYSRVVFNEITKNAIRQAFNKPGELNIDRVNAQQARRFMDRVVGYMVSPLLWKKIARGLSAGRVQSVAVRLVVEREREIKAFVPEEFWEVDASTTTPSGEALALQVTHQNDKPFRPVNKEQTQAAVSLLEKARYSVLEREDKPTTSKPGAPFITSTLQQAASTRLGFGVKKTMMMAQRLYEAGYITYMRTDSTNLSQDAVNMVRGYISDNFGKKYLPESPNQYASKENSQEAHEAIRPSDVNVMAESLKDMEADAQKLYQLIWRQFVACQMTPAKYDSTTLTVGAGDFRLKARGRILRFDGWTKVMPALRKGDEDRILPAVNKGDALTLVELTPAQHFTKPPARFSEASLVKELEKRGIGRPSTYASIISTIQDRGYVRVENRRFYAEKMGEIVTDRLEENFRELMNYDFTAQMENSLDQVANHEAEWKAVLDHFFSDFTQQLDKAEKDPEEGGMRPNQMVLTSIDCPTCGRKMGIRTASTGVFLGCSGYALPPKERCKTTINLVPENEVLNVLEGEDAETNALRAKRRCPKCGTAMDSYLIDPKRKLHVCGNNPTCDGYEIEEGEFRIKGYDGPIVECEKCGSEMHLKMGRFGKYMACTNEECKNTRKILRNGEVAPPKEDPVPLPELPCEKSDAYFVLRDGAAGVFLAANTFPKSRETRAPLVEELYRFRDRLPEKLRYLADAPQQDPEGNKTMVRFSRKTKQQYVSSEKDGKATGWSAFYVDGKWVEGKK,total protein half-life in vivo,[1],6.56 ± 0.22 h
same,total protein half-life in vivo,[2],6.56 ± 0.69 h
same,total protein half-life in vivo,[3],5.9165 ± 0.0035 h
same,total protein half-life in vivo,[4],6.34 ± 0.074 h
same,total protein half-life in vivo,[5],5.43 ± 0.18 h
same,total protein half-life in vivo,[6],2.57 ± 0.091 h
same,total protein half-life in vivo,[7],5.9591 ± 0.0017 h
same,total protein half-life in vivo,[8],10.5 ± 0.44 h
same,total protein half-life in vivo,[9],5.88 ± 0.34 h
same,total protein half-life in vivo,[10],12.4 ± 0.35 h
same,total protein half-life in vivo,[11],5.24 ± 0.54 h
same,total protein half-life in vivo,[12],11.5 ± 0.38 h
MKYDLIIIGSGSVGAAAGYYATRAGLNVLMTDAHMPPHQHGSHHGDTRLIRHAYGEGEKYVPLVLRAQTLWDELSRHNEEDPIFVRSGVINLGPADSTFLANVAHSAEQWQLNVEKLDAQGIMARWPEIRVPDNYIGLFETDSGFLRSELAIKTWIQLAKEAGCAQLFNCPVTAIRHDDDGVTIETADGEYQAKKAIVCAGTWVKDLLPELPVQPVRKVFAWYQADGRYSVKNKFPAFTGELPNGDQYYGFPAENDALKIGKHNGGQVIHSADERVPFAEVASDGSEAFPFLRNVLPGIGCCLYGAACTYDNSPDEDFIIDTLPGHDNTLLITGLSGHGFKFASVLGEIAADFAQDKKSDFDLTPFRLSRFQ,total protein half-life in vivo,[1],4.35 ± 1.2 h
same,total protein half-life in vivo,[2],3.046 ± 0.022 h
same,total protein half-life in vivo,[3],3.23 ± 0.11 h
same,total protein half-life in vivo,[4],3.34 ± 0.26 h
same,total protein half-life in vivo,[5],3.1 ± 0.046 h
same,total protein half-life in vivo,[6],2.99 ± 0.11 h
same,total protein half-life in vivo,[7],5.49 ± 0.24 h
same,total protein half-life in vivo,[8],6.92 ± 1.5 h
same,total protein half-life in vivo,[9],3.11 ± 0.23 h
same,total protein half-life in vivo,[10],5.46 ± 0.065 h
same,total protein half-life in vivo,[11],5.55 ± 0.089 h
same,total protein half-life in vivo,[12],10.5 ± 0.16 h
MSQTIDLTLDGLSCGHCVKRVKESLEQRPDVEQADVSITEAHVTGTASAEQLIETIKQAGYDASVSHPKAKPLAESSIPSEALTAVSEALPAATADDDDSQQLLLSGMSCASCVTRVQNALQSVPGVTQARVNLAERTALVMGSASPQDLVQAVEKAGYGAEAIEDDAKRRERQQETAVATMKRFRWQAIVALAVGIPVMVWGMIGDNMMVTADNRSLWLVIGLITLAVMVFAGGHFYRSAWKSLLNGAATMDTLVALGTGVAWLYSMSVNLWPQWFPMEARHLYYEASAMIIGLINLGHMLEARARQRSSKALEKLLDLTPPTARLVTDEGEKSVPLAEVQPGMLLRLTTGDRVPVDGEITQGEAWLDEAMLTGEPIPQQKGEGDSVHAGTVVQDGSVLFRASAVGSHTTLSRIIRMVRQAQSSKPEIGQLADKISAVFVPVVVVIALVSAAIWYFFGPAPQIVYTLVIATTVLIIACPCALGLATPMSIISGVGRAAEFGVLVRDADALQRASTLDTVVFDKTGTLTEGKPQVVAVKTFADVDEAQALRLAAALEQGSSHPLARAILDKAGDMQLPQVNGFRTLRGLGVSGEAEGHALLLGNQALLNEQQVGTKAIEAEITAQASQGATPVLLAVDGKAVALLAVRDPLRSDSVAALQRLHKAGYRLVMLTGDNPTTANAIAKEAGIDEVIAGVLPDGKAEAIKHLQSEGRQVAMVGDGINDAPALAQADVGIAMGGGSDVAIETAAITLMRHSLMGVADALAISRATLHNMKQNLLGAFIYNSIGIPVAAGILWPFTGTLLNPVVAGAAMALSSITVVSNANRLLRFKPKE,total protein half-life in vivo,[1],5.76 ± 0.52 h
same,total protein half-life in vivo,[2],5.33 ± 0.2 h
same,total protein half-life in vivo,[3],5.194 ± 0.042 h
same,total protein half-life in vivo,[4],5.433 ± 0.023 h
same,total protein half-life in vivo,[5],5.23 ± 0.55 h
same,total protein half-life in vivo,[6],2.89 ± 0.21 h
same,total protein half-life in vivo,[7],5.07 ± 0.085 h
same,total protein half-life in vivo,[8],9.5 ± 0.77 h
same,total protein half-life in vivo,[9],5.26 ± 0.34 h
same,total protein half-life in vivo,[10],9.52 ± 0.35 h
same,total protein half-life in vivo,[11],5.33 ± 0.32 h
same,total protein half-life in vivo,[12],9.65 ± 0.45 h
MSYPSLFAPLDLGFTTLKNRVLMGSMHTGLEEYPDGAERLAAFYAERARHGVALIVSGGIAPDLTGVGMEGGAMLNDASQIPHHRTITEAVHQEGGKIALQILHTGRYSYQPHLVAPSALQAPINRFVPHELSHEEILQLIDNFARCAQLAREAGYDGVEVMGSEGYLINEFLTLRTNQRSDQWGGDYRNRMRFAVEVVRAVRERVGNDFIIIYRLSMLDLVEDGGTFAETVELAQAIEAAGATIINTGIGWHEARIPTIATPVPRGAFSWVTRKLKGHVSLPLVTTNRINDPQVADDILSRGDADMVSMARPFLADAELLSKAQSGRADEINTCIGCNQACLDQIFVGKVTSCLVNPRACHETKMPILPAVQKKNLAVVGAGPAGLAFAINAAARGHQVTLFDAHSEIGGQFNIAKQIPGKEEFYETLRYYRRMIEVTGVTLKLNHTVTADQLQAFDETILASGIVPRTPPIDGIDHPKVLSYLDVLRDKAPVGNKVAIIGCGGIGFDTAMYLSQPGESTSQNIAGFCNEWGIDSSLQQAGGLSPQGMQIPRSPRQIVMLQRKASKPGQGLGKTTGWIHRTTLLSRGVKMIPGVSYQKIDDDGLHVVINGETQVLAVDNVVICAGQEPNRALAQPLIDSGKTVHLIGGCDVAMELDARRAIAQGTRLALEI,total protein half-life in vivo,[1],6.33 ± 2.2 h
same,total protein half-life in vivo,[2],3.52 ± 0.043 h
same,total protein half-life in vivo,[5],2.74 ± 0.96 h
same,total protein half-life in vivo,[6],2.93 ± 0.18 h
same,total protein half-life in vivo,[7],4.94 ± 0.13 h
same,total protein half-life in vivo,[8],9.61 ± 2.1 h
same,total protein half-life in vivo,[11],5.18 ± 0.79 h
same,total protein half-life in vivo,[12],10.6 ± 0.13 h
MNPERSERIEIPVLPLRDVVVYPHMVIPLFVGREKSIRCLEAAMDHDKKIMLVAQKEASTDEPGVNDLFTVGTVASILQMLKLPDGTVKVLVEGLQRARISALSDNGEHFSAKAEYLESPTIDEREQEVLVRTAISQFEGYIKLNKKIPPEVLTSLNSIDDPARLADTIAAHMPLKLADKQSVLEMSDVNERLEYLMAMMESEIDLLQVEKRIRNRVKKQMEKSQREYYLNEQMKAIQKELGEMDDAPDENEALKRKIDAAKMPKEAKEKAEAELQKLKMMSPMSAEATVVRGYIDWMVQVPWNARSKVKKDLRQAQEILDTDHYGLERVKDRILEYLAVQSRVNKIKGPILCLVGPPGVGKTSLGQSIAKATGRKYVRMALGGVRDEAEIRGHRRTYIGSMPGKLIQKMAKVGVKNPLFLLDEIDKMSSDMRGDPASALLEVLDPEQNVAFSDHYLEVDYDLSDVMFVATSNSMNIPAPLLDRMEVIRLSGYTEDEKLNIAKRHLLPKQIERNALKKGELTVDDSAIIGIIRYYTREAGVRGLEREISKLCRKAVKQLLLDKSLKHIEINGDNLHDYLGVQRFDYGRADNENRVGQVTGLAWTEVGGDLLTIETACVPGKGKLTYTGSLGEVMQESIQAALTVVRARAEKLGINPDFYEKRDIHVHVPEGATPKDGPSAGIAMCTALVSCLTGNPVRADVAMTGEITLRGQVLPIGGLKEKLLAAHRGGIKTVLIPFENKRDLEEIPDNVIADLDIHPVKRIEEVLTLALQNEPSGMQVVTAK [P0A9M0],total protein half-life in vivo,[1],3.09 h
same,total protein half-life in vivo,[2],6.54 ± 0.34 h
same,total protein half-life in vivo,[3],4.728 ± 0.026 h
same,total protein half-life in vivo,[5],4.49 ± 0.13 h
same,total protein half-life in vivo,[6],2.889 ± 0.0043 h
same,total protein half-life in vivo,[7],5.944 ± 0.036 h
same,total protein half-life in vivo,[8],11.2 ± 0.36 h
same,total protein half-life in vivo,[9],4.74 ± 0.17 h
same,total protein half-life in vivo,[10],6.68 ± 0.68 h
same,total protein half-life in vivo,[11],5.58 ± 0.2 h
same,total protein half-life in vivo,[12],10.7 ± 0.49 h
